We go through 1 substance from patent publication US20080132681A1.

“And” between values parts separate entries of the source, which are not always exact repeats. Equal values may be shown once.

In this assay the target is IFNα receptor 2 (IFNAR2) on THP-1 cells (human) (UniProt P48551). The assay is described as follows: cell-based or functional assay.
Sequence of UniProt P48551 (P48551 27-515): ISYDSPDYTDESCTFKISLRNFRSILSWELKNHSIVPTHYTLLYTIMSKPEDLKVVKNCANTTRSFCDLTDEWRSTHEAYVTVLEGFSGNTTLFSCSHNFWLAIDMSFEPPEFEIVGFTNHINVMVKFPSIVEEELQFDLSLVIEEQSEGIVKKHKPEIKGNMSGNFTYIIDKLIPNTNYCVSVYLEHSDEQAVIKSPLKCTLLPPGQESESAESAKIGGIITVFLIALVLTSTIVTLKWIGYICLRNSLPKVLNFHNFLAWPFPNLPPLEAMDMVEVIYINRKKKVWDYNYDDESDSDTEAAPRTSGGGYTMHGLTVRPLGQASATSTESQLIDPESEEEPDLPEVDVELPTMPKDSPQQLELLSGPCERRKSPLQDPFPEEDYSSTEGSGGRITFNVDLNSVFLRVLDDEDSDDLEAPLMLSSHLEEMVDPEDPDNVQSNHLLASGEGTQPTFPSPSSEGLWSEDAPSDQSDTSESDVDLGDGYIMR

In the case of “6HisC1G/C98 IFNα-2a + limitin loop (from UniProt P01563 25-188) (ligand)”, the pSTAT1 EC50 (THP-1 cells) was 30 pM and 34.8 pM.
